From patent US20100272689A1, “Protease Having Algicidal Activity, Gene Encoding the Same and Algicidal Formulation Comprising the Same” (KOREA OCEAN RESEARCH & DEVELOPMENT INSTITUTE, priority 2007, published 2010)
Values joined by “and” are separate entries in the source; they are usually repeats but may differ in a detail not shown here. Equal values may be shown once.

Experiments:
gelatin [1] = assay: Protease activity with zinc or calcium ion (gelatin, TCA supernatant); type: biochemical; conditions: 0.1% gelatin, pH 8.0, 20° C., 2 hr
Experimental: Also, 5 μg of refolded protein was added to buffer solution containing 0.1% gelatin, 50 mM Tris-HCl (pH 8.0), 100 mM KCl and 1 mM zinc or calcium ion, incubated at 20° C. for 2 hr, and then 5% TCA solution (w/v) was added to the solution, followed by stand for 10 min on ice. After centrifugation for 5 min at 10,000 rpm, the protein was measured using the supernatant. Inhibition of protease activity by metal ions was measured by comparing with control group without metal ion.

gelatin [2] = assay: Protease activity by electrophoresis on gelatin substrate gel; type: biochemical; conditions: refolded protein, FIG. 7
Experimental: Protease activity of proteases obtained according to Example 6 was measured using electrophoresis on gelatin substrate gel [Park, H. I., J. Biol. Chem., 275:20540-20544, 2000].

[3] = system: Cochlodinium polykrikoides; assay: Algicidal activity by cell count after 24 hr (Lugol staining); type: cell-based; conditions: 50 μl of protein (100 μg/ml), after 24 hr; for Cell number: ( ): standard deviation
Experimental: Organisms used as host for algicidal bacteria screen are Cochlodinium polykrikoides, Thalassiosira sp., Heterosigma akashiwo, Skeletonema costatum, Alexandrium sp., Gymnodium sp., Chaetoceros cuvisetus. Each algae cell was grown to log phase in F/2 broth (0.075 g NaNO3, 0.005 g NaH2PO4?H2O, 0.030 g Na2SiO3?9H2O, 1 ml F/2 trace metal solution, 1 ml F/2 vitamin solution and 1,000 ml aged seawater) [Stein, Handbook of phycological methods, Cambridge Univ. Press, 1973].
The cultured red tide organisms were diluted in F/2 broth to a final density of 0.05 (excitation wavelength=434 nm, emission wavelength=670 nm)on the fluorescent intensity using fluoro-spectrophotometer (Hitachi, Japan), and then 2.7 ml aliquots were dispensed into several test tubes (110 mm×10 mm) to prepare for the MPN (most probable number) method.
To measure algicidal activity of 10476—7 protein (SEQ ID NO:27), 50 μl of said protein (100 μg/ml) was added to the culture solutions of Cochlodinium polykrikoides, Thalassiosira sp., Heterosigma akashiwo, Skeletonema costatum, Alexandrium sp., Chaetoceros cuvisetus and Gymnodniium sp. which were prepared in Example 2. After 24 hr, said culture solutions were stained with 1% Lugol's iodine solution, and then the cell number was counted. Experimental groups with protease (experimental group 1 and 2) were compared with control group without protease in cell number and the degree of inhibition.
To check algicidal activity of proteins isolated Flavobacterium johnsoniae UW101 (ZP—01247095, SEQ ID NO: 4), Croceibacter atlanticus HTCC2559 (ZP—00951344, SEQ ID NO: 5), Leeuwenhoekiella blandensis MED217 (ZP—01059780, SEQ ID NO: 6) and Kordia algicida KAOT1—11562 (SEQ ID NO: 7), 50 μl of said protein (100 μg/ml) was added to the culture solutions of Cochlodinium polykrikoides, Thalassiosira sp., Heterosigma akashiwo, Skeletonema costatum, Alexandrium sp., Chaetoceros cuvisetus, and Gymnodium sp., which were prepared in Example 2. After 24 hr, said culture solutions were stained with 1% Lugol's iodine solution, and then the cell number was counted.
Experimental groups with protease (experimental group 1 and 2) were compared with control group without protease in cell number and the degree of inhibition.

gelatin [4] = assay: Protease activity at various temperature and pH; type: biochemical
Experimental: 10476—7 protein (SEQ ID NO: 27) containing only mature protein was suspended with SDS in combination with stabilization by using EDTA and resistance to detergent, and refolded by dilution using buffer solution containing 50 mM Tris-HCl, 1 mM EDTA and 1% triton X-100 except SDS, and then protease activity was measured at various temperature and pH according to the method as described above [Park, H. I., J. Biol. Chem., 275:20540-20544, 2000]. The results are shown in FIG. 9 and FIG. 10, respectively.

[5] = Experimental: To observe protein processing of the protease having algicidal activity according to the present invention, analysis of protease activity was performed as the same method of Example 7 except 10476—8 protein (SEQ ID NO: 26) which was reacted at 4° C. for a week, and then that was confirmed by SDS-PAGE (FIG. 8).

B1: 10476—7: protein containing only mature protein, without signal peptide and processing peptide (protein, listed as Kordia algicida)
chain: QYRTNNLVSPGVITIIGYTGNNSNGLTTKMQTGLRWAVDNYNALNLSISFQLTFGTDYQNKDMVVYQVQGGAGGSAGFPSGGNPYKWVKINSGMAPYSNNVHEHVIGHEIGHSIGFRHSDYFSRQSCGQNSNEGSAGVGAIHIPGTPTGWDPTSLMNACFSSSEDGEFNGNDITALNFLY
modifications: KAOT1_10476 of Kordia algicida OT-1 lacking signal and processing peptide
Effect of zinc ion on protease activity (gelatin [1]; FIG. 11): inhibition of 10476—7 protein activity by zinc ion was confirmed | Calcium ion concentration of maximal protease activity (gelatin [1]; FIG. 12): 80 to 100 mM | Protease activity (gelatin [2]): showed protease activity | The degree of inhibition (%) ([3]; experimental group 1): 40.7% | Cell number ([3]; experimental group 1): 960(30) cell/ml and 940(60) cell/ml | The degree of inhibition (%) ([3]; experimental group 2): 30.0% | Cell number ([3]; experimental group 2): 1040(90) cell/ml and 900(110) cell/ml | Temperature of optimal protease activity (gelatin [4]; FIG. 9): about 20 °C | pH of optimal protease activity (gelatin [4]; FIG. 10): 7-8

B2: 10476—8: protein containing processing peptide and mature protein, without the signal peptide part (protein, listed as Kordia algicida)
chain: VVDEEQDTAIGIPQDVLQKAQSLHFNTFDMQEASFEKPNGKIEEGYMMEGDIFFTRDQLMNMELGGDITSKQYRTNNLVSPGVITIIGYTGNNSNGLTTKMQTGLRWAVDNYNALNLSISFQLTFGTDYQNKDMVVYQVQGGAGGSAGFPSGGNPYKWVKINSGMAPYSNNVHEHVIGHEIGHSIGFRHSDYFSRQSCGQNSNEGSAGVGAIHIPGTPTGWDPTSLMNACFSSSEDGEFNGNDITALNFLY
modifications: KAOT1_10476 of Kordia algicida OT-1 lacking signal peptide
notes: protein containing processing peptide and mature protein, without the signal peptide part
Protease activity (gelatin [2]): showed protease activity | Time until turned into mature protease by degradation of processing peptide [5]: 3 days
